Reference: the supplement of paper PMC9170038

Tested on: MS2 coat protein
Experiment: apparent KD of MS2 coat protein; designed switch direction (-1 OFF switch, 1 ON switch): -1; higher = weaker reporter binding
In short: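 RNA switches sharing common flanks were transcribed by stalled E. coli RNA polymerase on Illumina chips. A doubling series of SNAP-549-labelled MS2 coat protein, from 0.7 or 1.5 nM to 3 µM, was applied in Tris-HCl pH 7.5 buffer with KCl, MgCl2, BSA, DTT, tRNA and Tween-20. Each step lasted 0.8–1.5 h at the bottom of the series and 10–20 min at the top. Normalised cluster fluorescence was curve-fitted, giving apparent KD as the per-design median over clusters.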

[1] = Eterna round: R95, input ligand: microRNA oligo, concentration not stated
[2] = Eterna round: R95, input ligand: FMN 200 uM
[3] = Eterna round: R95, input ligand: none
[4] = input ligand: microRNA oligo, concentration not stated

| Sequence | apparent KD of MS2 coat protein [1] | apparent KD of MS2 coat protein [2] | apparent KD of MS2 coat protein [3] | apparent KD of MS2 coat protein (input ligand: FMN 200 uM) | apparent KD of MS2 coat protein (input ligand: none) | apparent KD of MS2 coat protein [4] |
| --- | --- | --- | --- | --- | --- | --- |
| GUUAAGGUAGGAUAUACGAUAAUAUAGGGUAGAUAUAUAACACAUGAGGAUCACCCAUGUAGAAGGACCAAUUG [Mat - Exclusion 2 - Mod of my Tesla design - D53] (puzzle: Exclusion 2) | 28.5 nM |  |  |  |  |  |
| GAUUGACAUGAGGAUCACCCAUGUGAGGAUAUCGGCCGGACCGUGUUAGCUUCCGUCGCGAGAAGGCGCAUAGG [Exclusion 1 V38] (puzzle: Exclusion 1) | 42.8 nM | 42.3 nM | 36.7 nM |  |  |  |
| UAUUAGCAAGCGAGAUCCCACAUGAGGAUCACCCAUGUGCUCGUCUUAUAAAGUACUGUGACGAAAGUCACGGUACA [Sensor 3, v1 - 91 v3] (Eterna round: R97, puzzle: Sensor, turn-off variant 1) |  |  |  | 14.3 nM | 12.8 nM |  |
| AAAGUUCGAGGAUAUCUACUUAGCUACAUGAGGAUCACCCAUGUUAUCCUCCCGCUGGGAAGAGAAGGCGGUUAAA [Xeonceso] (puzzle: Exclusion 5) | 41.7 nM | 186 nM | 41.7 nM |  |  |  |
| UUUUAGUCAGGAUAUACAUGAGGAUCACCCAUGUAAAAUUUUAAUUUAAUUUUAAGGUGUAGAAGGGACAAUCC [Ex3 #12] (Eterna round: R97, puzzle: Exclusion 3) |  |  |  | 43.1 nM | 38.9 nM |  |
| ACAUGAGGAUCACCCAUGUCCGGCUGGUCCGUCUCGGCUGUCGAGGAUAUGGCUCGGUGUCCGCGCUAGAAGGUGGGAGCCGGU [Aenatbe mod 74] (Eterna round: R96, puzzle: Exclusion NG 3) |  |  |  | 100 nM | 103 nM | 54 nM |
| GUUUUCAGACGGAGAUCCUACAUGAGGAUCACCCAUGUCUCUCAAGCUAAUUGCUCGUCUUAUUCUCCUCUGUUCUC [Elimod 39 - Jieux - Sensor, turn-off variant 1] (Eterna round: R97, puzzle: Sensor, turn-off variant 1) |  |  |  | 35.6 nM | 41 nM |  |
| UCAAUUUUGACAGGAUAUAGUUUUUGUUUCUCUCUAGAAGGGUCUGUGUACAUGAGGAUCACCCAUGUUCUUCUUAUUUAUAUU [JR_ExcNG1_Sub014] (Eterna round: R96, puzzle: Exclusion NG 1) |  |  |  | 28.4 nM | 36.7 nM | 28.6 nM |
| ACCUUACUGGUCAGGAUAUACAGUCUUUGGUGUGUGUAGAAGGGACAUGAGGAUCACCCAUGUAGGUUGCUUUA [alecazam62] (Eterna round: R97, puzzle: Brourd's mod of Exclusion 4) |  |  |  | 220 nM | 141 nM |  |
| UUAGAUUAUUGAGGAUAUGGUUAUUUUUAUUAACCAGAAGGCAAACUCAACAUGAGGAUCACCCAUGUAUAAAGGGUAUUAGUU [JR_ExcNG1_Sub097] (Eterna round: R96, puzzle: Exclusion NG 1) |  |  |  |  |  | 71.9 nM |
| AGUUAGAUAGGAUAUGCCCGAGAUAACAUGAGGAUCACCCAUGUGACCGAGUCUAUUCUAGCAGAAGGGUUUAUGA [Mod of ViennaUCT 20 - Jieux - Exclusion 5] (Eterna round: R97, puzzle: Exclusion 5) |  |  |  | 17.8 nM | 18.3 nM |  |
| GAGAAAUUAUAGGAUAUCGUAUGGAUAAUUUAACGAGAAGGAUGAACAUGAGGAUCACCCAUGUGGUAUCAUGG [JL-ex6-3.13] (puzzle: Exclusion 6) | 327 nM | 262 nM | 331 nM |  |  |  |
| UAUUAGCAAGCGAGAUCCCACAUGAGGAUCACCCAUGUGCUCGUCGCAUCCAGAAUUACUGGGUGCGCUCGUCUUAU [Winner reversed engineered 15] (Eterna round: R97, puzzle: Sensor, turn-off variant 1) |  |  |  | 23.8 nM | 23.7 nM |  |
| UUAUACGUUGAGGAUAUGCGAUUUAGUAUAGUUGCAGAAGGCGAUACAUGAGGAUCACCCAUGUUUAUGGGCAU [LRO-Ex6-07] (puzzle: Exclusion 6) | 269 nM | 394 nM | 259 nM |  |  |  |
| ACAUGAUCAGGAUAUACAUGAGGAUCACCCAUGUAAAUCAAAAAAAAACUUUCUUUAUGUAGAAGGGAUCUUGU [EX3 270: Random 6] (Eterna round: R96, puzzle: Exclusion 3) |  |  |  | 15.2 nM | 15.3 nM | 13.6 nM |
| CCGACUCAAGGAUAUUGUACUGCUGACAUGAGGAUCACCCAUGUGUCCUGACGCGGACGACGAGAAGGUGACGACA [Eternabot (Original) Solution 44] (Eterna round: R97, puzzle: Exclusion 5) |  |  |  | 981 nM | 292 nM |  |
| AAUUAUUAUUGAGGAUAUCGUAUUGAAACAAUAUGAGAAGGCGGGAUAAACAUGAGGAUCACCCAUGUGAGCCUGAUGCUUGUG [Ex NG1 #40] (Eterna round: R96, puzzle: Exclusion NG 1) |  |  |  |  |  | 15.3 nM |
| UUAUAUAGUGUGAGGAUAUGCUGGUCCUUGGAUCAGCAGAAGGCACAUGAGGAUCACCCAUGUAGUUUAUUUUA [JL bmx4 3.01] (puzzle: Brourd's mod of Exclusion 4) | 26.8 nM |  |  |  |  |  |
| ACAUUGCGAGGAUAUACAUGAGGAUCACCCAUGUGGUGGCAGUUACGGUAGGACUAGUGUAGAAGGUGCCAUGG [EX3 #23] (Eterna round: R97, puzzle: Exclusion 3) |  |  |  | 441 nM | 401 nM |  |
| UUUAUGUCAGGAUAUGAUUAGAUCUACUUCGGUAGAUCUAAUCAGAAGGGACAUGAGGAUCACCCAUGUAGUUU [Ex4 - 3 - 13] (Eterna round: R96, puzzle: Exclusion 4) |  |  |  | 671 nM | 180 nM | 137 nM |
| UGAUCUAGCGGAGGAUAUACAUGAGGAUCACCCAUGUAGGAUCCAUGACCGUAGUCGUGGAUCGUGUAGAAGGCCGCUAGAUCU [JL ENG2 3.70] (Eterna round: R96, puzzle: Exclusion NG 2) |  |  |  | 13 nM | 13.1 nM | 8.14 nM |
| ACUAGCUUUUUGCAUAGUAGGUUUGGUGCUUCGUAUGCUACAUGAGGAUCACCCAUGUAUUACUGAUUUCGUCGUUU [JR_SV3TOV2_Sub093] (puzzle: Sensor v3, turn-off variant 2) | 41.1 nM | 24.6 nM | 27.3 nM |  |  |  |
| UGUGUCCGGGAGGAUAUCAGAACGCUAGUGGUCUGAGAAGGCCUAACAUGAGGAUCACCCAUGUGAUUAUUUAU [Eternabot (L2) Solution 51] (Eterna round: R97, puzzle: Exclusion 6) |  |  |  | 93.4 nM | 52.5 nM |  |
| AGUUGGCGAGGAUAUACAUGAGGAUCACCCAUGUAUGAGAUAAAAGUGAGGUAAAUAUGUAGAAGGCGCUGACA [JR_Ex3_Sub078] (Eterna round: R97, puzzle: Exclusion 3) |  |  |  | 897 nM | 107 nM |  |
| UUUUAGAGAGGAUAUACAUUUUUUUAUUUAUUUAUAAUAUUACAUGAGGAUCACCCAUGUAGAAGGCUCAUUUU [My Design] (puzzle: Exclusion 2) | 25.8 nM |  |  |  |  |  |
| CCAUCGUGUGUGAGGAUAUGCUGGUCCUUGGAUCAGCAGAAGGCACAUGAGGAUCACCCAUGUGAAAACGAUGG [Mat - Exclusion 4 - JL Mod - D88] (puzzle: Brourd's mod of Exclusion 4) | 16.8 nM |  |  |  |  |  |
